# Reference: article PMC2816671 (2010)
# Target: von Willebrand factor (Homo sapiens, UniProt P04275)
# Experiment: Eu-labelled ligand solid-phase equilibrium binding
row,Binder,Kd
1,plasminogen (protein) EPLDDYVNTQGASLFSVTKKQLGAGSIEECAAKCEEDEEFTCRAFQYHSKEQQCVIMAENRKSSIIIRMRDVVLFEKKVYLSECKTGNGKNYRGTMSKTKNGITCQKWSSTSPHRPRFSPATHPSEGLEENYCRNPDNDPQGPWCYTTDPEKRYDYCDILECEEECMHCSGENYDGKISKTMSGLECQAWDSQSPHAHGYIPSKFPNKNLKKNYCRNPDRELRPWCFTTDPNKRWELCDIPRCTTPPPSSGPTYQCLKGTGENYRGNVAVTVSGHTCQHWSAQTPHTHNRTPENFPCKNLDENYCRNPDGKRAPWCHTTNSQVRWEYCKIPSCDSSPVSTEQLAPTAPPELTPVVQDCYHGDGQSYRGTSSTTTTGKKCQSWSSMTPHRHQKTPENYPNAGLTMNYCRNPDADKGPWCFTTDPSVRWEYCNLKKCSGTEASVVAPPPVVLLPDVETPSEEDCMFGNGKGYRGKRATTVTGTPCQDWAAQEPHRHSIFTPETNPRAGLEKNYCRNPDGDVGGPWCYTTNPRKLYDYCDVPQCAAPSFDCGKPQVEPKKCPGRVVGGCVAHPHSWPWQVSLRTRFGMHFCGGTLISPEWVLTAAHCLEKSPRPSSYKVILGAHQEVNLEPHVQEIEVSRLFLEPTRKDIALLKLSSPAVITDKVIPACLPSPNYVVADRTECFITGWGETQGTFGAGLLKEAQLPVIENKVCNRYEFLNGRVQSTELCAGHLAGGTDSCQGDSGGPLVCFEKDKYILQGVTSWGLGCARPNKPGVYVRVSRFVTWIEGVMRNN,100 nM
2,plasmin (protein) VVGGCVAHPHSWPWQVSLRTRFGMHFCGGTLISPEWVLTAAHCLEKSPRPSSYKVILGAHQEVNLEPHVQEIEVSRLFLEPTRKDIALLKLSSPAVITDKVIPACLPSPNYVVADRTECFITGWGETQGTFGAGLLKEAQLPVIENKVCNRYEFLNGRVQSTELCAGHLAGGTDSCQGDSGGPLVCFEKDKYILQGVTSWGLGCARPNKPGVYVRVSRFVTWIEGVMRNN,160 nM
3,"active-site blocked plasmin (protein, Pefabloc (AEBSF) active-site blocked) chain 1: KVYLSECKTGNGKNYRGTMSKTKNGITCQKWSSTSPHRPRFSPATHPSEGLEENYCRNPDNDPQGPWCYTTDPEKRYDYCDILECEEECMHCSGENYDGKISKTMSGLECQAWDSQSPHAHGYIPSKFPNKNLKKNYCRNPDRELRPWCFTTDPNKRWELCDIPRCTTPPPSSGPTYQCLKGTGENYRGNVAVTVSGHTCQHWSAQTPHTHNRTPENFPCKNLDENYCRNPDGKRAPWCHTTNSQVRWEYCKIPSCDSSPVSTEQLAPTAPPELTPVVQDCYHGDGQSYRGTSSTTTTGKKCQSWSSMTPHRHQKTPENYPNAGLTMNYCRNPDADKGPWCFTTDPSVRWEYCNLKKCSGTEASVVAPPPVVLLPDVETPSEEDCMFGNGKGYRGKRATTVTGTPCQDWAAQEPHRHSIFTPETNPRAGLEKNYCRNPDGDVGGPWCYTTNPRKLYDYCDVPQCAAPSFDCGKPQVEPKKCPGR chain 2: VVGGCVAHPHSWPWQVSLRTRFGMHFCGGTLISPEWVLTAAHCLEKSPRPSSYKVILGAHQEVNLEPHVQEIEVSRLFLEPTRKDIALLKLSSPAVITDKVIPACLPSPNYVVADRTECFITGWGETQGTFGAGLLKEAQLPVIENKVCNRYEFLNGRVQSTELCAGHLAGGTDSCQGDSGGPLVCFEKDKYILQGVTSWGLGCARPNKPGVYVRVSRFVTWIEGVMRNN",270 nM
